The values below come from a protein production outcome set (Wang et al. 2014).
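Further: failed if final PepcDB status was selected cloned or expressed and not failed if soluble or beyond.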

This data set can be described thus: label from the status in PepcDB records.
As to “MSTGQAPEKSNFSQRCSLLSRYLKEKGSFGNINMGLARKSDLELAGKFDLKGQQNVIKKVETSETRPFKLIQKFSIGEASTSTEDKAIYIDLSEPAKVAPESGNSQLTIFFGGKVMVFNEFPEDKAKEIMEVAKEANHVAVDSKNSQSHMNLDKSNVVIPDLNEPTSSGNNEDQETGQQHQVVERIARRASLHRFFAKRKDRAVARAPYQVNQHGSHLPPKPEMVAPSIKSGQSSQHIATPPKPKAHNHMPMEVDKKEGQSSKNLELKL”, the protein production entry is given as “failed”.

In the case of “MLTFEKVLEIFADYLAADKTIEVYISRHGCVRVEFDQDFHYCTGEVCHTPRKLFDLLSDDYQTYLEIELTKGRRELTEDDIKEADTLCKRYLDRWKEELGLEHHHHHH”, the protein production entry is reported as “not failed”.

“MSCCIANAIRWDVSLLIHRSMSSSMSSVQPTSPVSDSPSLGEMHASVAVSRRGHWGFRLLAFLGPGYMVSVGYMDPGNWATGLAGGSRFGYMLLSVILLSNVMAIVLQALAARLGIASDMDLAQACRARYSRGTNLALWAVCELAIIACDLAEVIGTAIALNLLLGVPIILGAVITAVDVVLVLLLMHRGFRALEAFVIALLLVIFGCFVVQIVLAAPPLQEVLGGFVPRWQVVADPQALYLAIGIVGATVMPHNLYLHSSIVQTRAYPRTPVGRRSALRWAVADSTLALMLALFINASILILAAAVFHAQHHFDVEEIEQAYQLLAPVLGVGVAATLFATALLASGINSTVTATLAGQIVMEGFLRLRLRPWLRRVLTRGLAIVPVIVVVALYGEQGTGRLLLLSQVILSMQLPFAVIPLLRCVADRKVMGALVAPRWLMVVAWLIAGVIVVLNVKLLGDYAVHLMVGVSD”: the protein production entry is “failed”.

In the case of “MEDSGKTFSSEEEEANYWKDLAMTYKQRAENTQEELREFQEGSREYEAELETQLQQIETRNRDLLSENNRLRMELETIKEKFEVQHSEGYRQISALEDDLAQTKAIKDQLQKYIRELEQANDDLERAKRATIMSLEDFEQRLNQAIERNAFLESELDEKENLLESVQRLKDEARDLRQELAVQQKQEKPRTPMPSSVEAERTDTAVQATGSVPSTPIAHRGPSSSLNTPGSFRRGLDDSTGGTPLTPAARISALNIVGDLLRKVGALESKLASCRNLVYDQSPNRTGGPASGRSSKNRDGGERRPSSTSVPLGDKGLGKRLEFGKPPSHMSSSPLPSAQGVVKMLL”, the protein production result is listed as “failed”.

On to “MVVVTGREPDSRRQDGAMSSSDAEDDFLEPATPTATQAGHALPLLPQEFPEVVPLNIGGAHFTTRLSTLRCYEDTMLAAMFSGRHYIPTDSEGRYFIDRDGTHFGDVLNFLRSGDLPPRERVRAVYKEAQYYAIGPLLEQLENMQPLKGEKVRQAFLGLMPYYKDHLERIVEIARLRAVQRKARFAKLKVCVFKEEMPITPYECPLLNSLRFERSESDGQLFEHHCEVDVSFGPWEAVADVYDLLHCLVTDLSAQGLTVDHQCIGVCDKHLVNHYYCKRPIYEFKITW”, for which the protein production result is reported as “not failed”.

Consider “MSETELRKRQAQFTRELHGDDIGKKTGLSALMSKNNSAQKEAVQKYLRNWDGRTDKDAEERRLEDYNEATHSYYNVVTDFYEYGWGSSFHFSRFYKGESFAASIARHEHYLAYKAGIQRGDLVLDVGCGVGGPAREIARFTGCNVIGLNNNDYQIAKAKYYAKKYNLSDQMDFVKGDFMKMDFEENTFDKVYAIEATCHAPKLEGVYSEIYKVLKPGGTFAVYEWVMTDKYDENNPEHRKIAYEIELGDGIPKMFHVDVARKALKNCGFEVLVSEDLADNDDEIPWYYPLTGEWKYVQNLANLATFFRTSYLGRQFTTAMVTVMEKLGLAPEGSKEVTAALENAAVGLVAGGKSKLFTPMMLFVARKPENAETPSQTSQEATQ”, for which the protein production entry is listed as “failed”.

In the case of “MDIITKMQVDVPRETVFEAFVDPEKIGGFWFSSSSERWEQGKTITLRYEEYDAELNINIERVEDNQLIAFTWGAHPITIQFEESEAGTVVTTTEKDFDTQDVKQLLGQKEGWVYMLSCLKVYLEHGVTIRAAILLEHHHHHH”, the protein production result is “failed”.

For the sequence “MLLSYLIYGLRNGFMVTLGGIAGFVVGAIAAFMAVPLVSGWVTDSGWRLTATVGAAVVLIALGHGLGTMIGRKVRHTVRIKPLHAVDRLIGGVVSVVVAALVMSMLAFSISSLGVPFVSQQLAESRVIRYIDDLTPTPVKSTMAQLRSTVIGDGIPKLIEGIGPVTPVPVPNESTDTPALNQAAESVLKIAGTAFECGQNQTGSGFVVSPGRVVTNAHVVAGVSQPVVEVPDGGALPGRVVYFDSQRDIAVLAVDGLQSSPLPLSADLPAGSSAAFAGYPHGGPFQSKPATVQGISTILVPDIYGNNPSPEQVYKLAGDVQPGNSGGPLLTMQGQVAGLIFAKTTTDAALGFALTMADLEPVAAQAPGLSNPVSAGQCTRK”, the protein production entry was “failed”.

For “AEGRGKARADSLKAGSQGLSANKRRADGSFESVVASSLRKGDVVRVQAGEMIPGDGEVIEGVAAVNEAAITGESAPVIRESGGDRSAVTGNTQVVSDWLLVRIGANPGESTLDRMIALVEGAKRQKTPNEV”, the protein production result is “failed”.

For “MRPSAPNIWIWKVSNLASDPRETVSGEWYAARSNLSSAARLRHGGTLLLVLDAKDNHVITKAEIKAVEISHRVGTIPREIHFPDGSLFETSDNEGVDRLLGLYLPKRAGFVHRLEQFRPRLIGITAAAVLLAYGTYKLALPAVVELAVAMTPPIVPKIMSASTMQALDQTVFSASELPLEEQNAIRVQFSRIAAHAEGSPEDYKLNFRKGGYIGPNAFALPDGTLVLTDELVELAGGDRQMIIGVLAHEIGHVEYEHSLRQLYRAAGVAGLVMLIAGDVGSAMEDILTQGGGLLALSHSRDAERQADQRSVELMRKADLDPTAIERFFALLEEKLGDKGGTSIISTHPGTPQRRKAIIDYNASLDNKPAGNLEHHHHHH”, the protein production result is on record as “failed”.

Consider “MADDKKKRNKKKKRSTGNKRKMTTEQSEAFKSITDWLILGSSPSLSSSSDDFAVNINSGSLRCGEKVVFELHSHSNRSDGFLSPSKVVERAYNNGVKVLSLTDHDTMAGVPEAVEAGRRFGIKIIPGIEISTLFGLRDSGSEEPVHILAYYGTSGPALYDELEDFLVKIRDGRFVRGREMVLKLNKLKIPLKWEHVTRIAGKDVAPGRMHVARALLEAGYVENLRQAFTKYLHDGGPAYATGTEPMAEEAVKLICKTGGVAVLAHPWALKNHVGIIRRLKDAGLHGVEVYRSDGKLEVFSELADTYNLLKLGGSDYHGKGGRNESELGSVNLPVTALQDFLNVGRPIWCEAIKATMRAFLDQPSDSNLSNILRFDKARILKGNSAWSCGKELMDRCLAIWLTSDERNSNDFEALRLKLSFVPIMSNGTCVTVGP”, for which the protein production result is recorded as “failed”.

Regarding “MDPSEYPFDIKAYKRQSEIEEMYIINRFRERRNKIGEDYPPHLSNSDNYFTQRYDAAKKEGISPLPKYTTTMRMFAYGVAADAVDEYSKIGGTTTLECLRRFCKGIIKLYETEYLRAPTQDDLQRILRVSEMRGFPGIIGSINCMQWEWKTCPTVWEGNTTRVNFFVSQHPYNIAYYLADGIYPSYPTFVKSIRLPQSEPDKLFVQRQEACHKDIERAFGVLQARFKIIRKPAGLWDIFELAIIMRSCKWVEYTTTILDPSATPICKSCA”, the protein production entry is “failed”.

Consider “MKCNERDCNNDNGEEDEKDTNTTIAVKLPATTALIVGYDPIDDQHKALSLKRKRTEKLSFINALKGFVQWGSEAVFIEYKGKLASIDLETVKSLGALMDSKEPPAPVNLLF”, for which the protein production result is reported as “failed”.

For “MLWSFIAVCFSAWLYVDASYRGPAWRRWVFKPVTLILLLLLAWQAPMFNAISYLVLAGLCASLLGDALTLLPRQRVMYAVGAFFLSHLLYTIWFASQLTLSFFWPLPLVLLVFGALLMAVIWSRLEEMKMPVLTFIGMTLVMVWLAGELWFARPTNTALSGFAGAALLLLSNAVWLVSHYRRRFRADNAIAAAFYFAGHFLIVRALYL”, the protein production entry is “failed”.

Consider “MKVRADFAFEKVARDWFVRWSKGRSEKYAGQVMRNFERWVFPAIGNLDIRQVRTADVVGCLRVMEARGIVDTLRKTKNSLKMVFAFAVGSGMMEINPVAQIGSGVFERLEHHHHHH”, for which the protein production result was “not failed”.

As for “MKIEAASEQHLSVYRRYFRACRDEDFEYYRGLPDDADGWLLKVVQHADGEALPEGWVPCQTWFLLSDDGEIAGAARLREGETAVIQDVIGHIGFEVLPQWRGHGYGRVLLQYVQAMAPAPACGNWVLVCDADSPASVRTIEACGGQRLEDMPQPDGRV”, the protein production entry is reported as “failed”.

In the case of “MQGIPLGSEYFEKLDPYFLVCIAKEYLLFCPKQPRLPGQIVSPLLKQVAVILNPVVKAAPALIDPLYLMAQVRYYSGELENAQSILQRCLELDPASVDAHLLMCQIYLAQGNFGMCFHCLELGVSHNFQVRDHPLYHLIKARALNKAGDYPEAIKTLKMVIKLPALKKEEGRKFLRPSVQPSQRASILLELVEALRLNGELHEATKVMQDTINEFGGTPEENRITIANVDLVLSKGNVDVALNMLRNILPKQSCYMEAREKMANIYLQTLRDRRLYIRCYRELCEHLPGPHTSLLLGDALMSILEPEKALEVYDEAYRQNPHDASLASRIGHAYVKAHQYTEAIEYYEAAQKINGQDFLCCDLGKLLLKLKKVNKAEKVLKQALEHDIVQDIPSMMNDVKCLLLLAKVYKSHKKEAVIETLNKALDLQSRILKRVPLEQPEMIPSQKQLAASICIQFAEHYLAEKEYDKAVQSYKDVFSYLPTDNKVMLELAQLYLLQGHLDLCEQHCAILLQTEQNHETASVLMADLMFRKQKHEAAINLYHQVLEKAPDNFLVLHKLIDLLRRSGKLEDIPAFFELAKKVSSRVPLEPGFNYCRGIYCWHIGQPNEALKFLNKARKDSTWGQSAIYHMVQICLNPDNEVVGGEAFENQGAESNYMEKKELEQQGVSTAEKLLREFYPHSDSSQTQLRLLQGLCRLATREKANMEAALGSFIQIAQAEKDSVPALPALAQAYVFLKQIPKARMQLKRLAKTPWVLSEAEDLEKSWLLLADIYCQGSKFDLALELLRRCVQYNKSCYKAYEYMGFIMEKEQSYKDAVTNYKLAWKYSHHANPAIGFKLAFNYLKDKKFVEAIEICNDVLREHPDYPKIREEILEKARKSLRP”, the protein production entry is given as “failed”.

Regarding “NDPDADRFAVAVRKDDGEYQMLTGDQVGVLFGHYLLSHASADQRLVGTTIVSSSLLSKIANGFGVESYTTLTGFKWLMNVGIAQSQPDNQFLFAYEEALGYTVGNMVWDKDGLSALVAFAQLTAELAAKGQTIWDRLEQIYREQGFHLN”, the protein production entry is “failed”.

“MAKRIFLFILTNILVLTTIGIVLSVLSSVTGVGTYFTADGGIDPMALLVFSLVVGFVGSFTSLAISRWMAKTMMGVRVLNPKKHSLSYEEQQLVDRVHRLSRSAGLTKMPEVGIYRSPEVNAFATGPSKRRSLVAVSSGLLEQMDDAAVEGVLAHEVAHITNGDMVTMTLLQGIVNTFVVFLSRIAAWIASRFVKEDLAPIVHFIAMIIFQIVFSILGSLVVFAYSRHREFHADRGGADLAGKDKMIHALRTLKSYSSRILEDDQTAVQTLKINGKKRSSLFSTHPDLDERIRRLEAK”: the protein production result is listed as “failed”.

For the sequence “MGKEERAKWVNDEYAKAYEKMKSYGEQVKKADKPRVLYLKRSDLTLQGNDNFIKESMELAGADNIAAEAKSITMEEILKLDPEIILLSDFDKFLPQDLYENRIEGQDWSSVSAVVNKRVYKTPVGIYRWDAPGVETPLMMFWLGKMLQPEILEHHHHHH”, the protein production entry was “failed”.

Consider “MTLTMGFIGFGKSANRYHLPYLKTRNNIKVKTIFVRQINEELAAPYEERGVYFTTDLDELLNDKEIQVVTICTPAHTHYELAKKVILAGKSVIVEKPFCDTVEHAKELLALGREKGVVVMPYQNRRFDGDFLAVKQVVEQGFLGDIIEIESHIDYFRPGSITHEAPKEEGSFYSLGIHTMDRMISLFGRPNTVTYDIRNNEVEGAVDNYFDVGLHYGNQLKIKLKTNHIVAKDYPRFIVHGTNGSFIKYGEDQQENDLKAGIMPESAGFGEDSPMYYGIAKYRNANGDWIEKQIKTPLGDYGRFYDAAYDTIVNGAPKLVKDEEAVTNIEILENGFAAPSPSVYKLEALHLNELEHHHHHH”, for which the protein production entry is given as “not failed”.
